Data on three molecules can be found in paper PMC4574351, “Tubulin cofactors and Arl2 are cage-like chaperones that regulate the soluble αβ-tubulin pool for microtubule dynamics” (eLife, 2015).

In test [1] the target is TBC-DEG:αβ-tubulin complex (S. cerevisiae | porcine) (UniProt P40987). Put plainly: SEC-MALS; WTC-03S5 column; purified TBC-DEG (subunits co-expressed and co-purified), αβ-tubulin, TBCC and their complexes; ternary complex with GDP·ALFx (wild type) or GTP (Q73L).
Test [2] has the same target.
The target is the same in test [3]. This is another data set of the same source.
In test [4] the target is T1, Tubulin cofactor D (TBCD), S. cerevisiae Cin1p (S. cerevisiae), P40987.
T1 chain: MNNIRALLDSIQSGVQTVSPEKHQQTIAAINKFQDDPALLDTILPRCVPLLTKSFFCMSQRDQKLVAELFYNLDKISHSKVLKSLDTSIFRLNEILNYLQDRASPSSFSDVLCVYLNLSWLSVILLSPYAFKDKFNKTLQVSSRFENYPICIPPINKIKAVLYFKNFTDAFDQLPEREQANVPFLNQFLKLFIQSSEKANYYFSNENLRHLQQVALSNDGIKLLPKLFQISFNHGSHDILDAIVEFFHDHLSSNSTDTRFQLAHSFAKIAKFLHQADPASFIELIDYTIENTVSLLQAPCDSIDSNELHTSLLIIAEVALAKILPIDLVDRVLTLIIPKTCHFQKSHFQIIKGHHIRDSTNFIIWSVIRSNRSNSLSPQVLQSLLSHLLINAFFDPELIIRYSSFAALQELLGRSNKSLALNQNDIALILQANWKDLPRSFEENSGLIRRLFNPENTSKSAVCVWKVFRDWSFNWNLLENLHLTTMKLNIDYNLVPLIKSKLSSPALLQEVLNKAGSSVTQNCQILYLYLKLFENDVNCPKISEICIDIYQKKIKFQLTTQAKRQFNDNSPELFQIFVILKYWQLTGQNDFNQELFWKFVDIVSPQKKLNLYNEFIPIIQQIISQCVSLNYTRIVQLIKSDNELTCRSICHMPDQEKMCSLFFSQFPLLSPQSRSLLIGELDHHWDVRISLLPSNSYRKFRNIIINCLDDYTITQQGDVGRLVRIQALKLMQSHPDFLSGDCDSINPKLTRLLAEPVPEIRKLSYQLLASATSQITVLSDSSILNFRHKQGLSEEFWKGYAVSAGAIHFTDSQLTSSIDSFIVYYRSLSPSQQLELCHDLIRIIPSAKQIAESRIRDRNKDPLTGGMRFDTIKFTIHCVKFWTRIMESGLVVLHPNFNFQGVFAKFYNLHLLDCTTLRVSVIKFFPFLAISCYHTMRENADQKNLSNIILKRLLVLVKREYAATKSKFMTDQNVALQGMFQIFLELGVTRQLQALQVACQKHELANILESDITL
Put plainly: SEC-MALS; WTC-03S5 column; purified TBC-DEG (subunits co-expressed and co-purified), αβ-tubulin, TBCC and their complexes; ternary complex with GDP·ALFx (wild type) or GTP (Q73L). The following applies: remark: other sources report otherwise.

B1: Tubulin cofactor C (TBCC), S. cerevisiae Cin2p (natural protein)
chain: MDFTAKIKELERELSETSDYKTLQKKTISLRSELNTLSHSLTSYEKEHFSNDIENVLKSINAKLSESKGKKRLFSFKQKNSSSAVHKNVERTELANAPAYTTTLKKHYVLEKGDSAFENLEFCTVTSTTDYSGNSALSGSLCFRNITKCVINLQRIFFQTGSIFITDCTDSIIFLRSPSDKDFQIRLRDLKNCKILIEKLSPSIDCKQVVIIENCHKCIFNASTRDHLIIQDFSNPFQSEETEDNSAFAFEDFDICNKDTMQLFRAYL
With B1, the stoichiometry N in test [1] is 1. In addition, in test [2], the steady-state GTP hydrolysis kcat (malachite green), 1 μM TBC-DEG:1 μM TBCC:1 μM αβ-tub came to 31300 M⁻¹ s⁻¹. Besides, the steady-state GTP hydrolysis kcat, equimolar αβ-tubulin and TBCC added to TBC-DEG (number as in the text) in test [3] turned out to be 0.0308 s⁻¹.

B2: TBCC C-terminal β-helix domain (residues 100-267) (domain or fragment)
chain: YTTTLKKHYVLEKGDSAFENLEFCTVTSTTDYSGNSALSGSLCFRNITKCVINLQRIFFQTGSIFITDCTDSIIFLRSPSDKDFQIRLRDLKNCKILIEKLSPSIDCKQVVIIENCHKCIFNASTRDHLIIQDFSNPFQSEETEDNSAFAFEDFDICNKDTMQLFRAY
For B2, the steady-state GTP hydrolysis kcat, 1 μM TBC-DEG:1 μM TBCC-Cterm:1 μM αβ-tub in test [2] was 18800 M⁻¹ s⁻¹.

B3: Tubulin cofactor E (TBCE), S. cerevisiae Pac2p, P39937 1-518 (natural protein)
chain: MTYEIGDRLKIGGYFCTIKFIGVIKPWPSVKAYGVEWDDHSRGKHSGTIDDIHYFDVQIPNSGSFLKESKIKSPGVRRITFYEALSEKYGGSSNNINDLSIGNKRVEGLGFDELNARNKNYKKLRKIALRDSDVAILFQNQDELNRVIQNCVNVKDLDLSLNLFTNINSLCEFIEPLKNLESLNISQNKLLSGWDNLKEYDLSHIKTLRLSSCGLSYKHIGKLLKSFRTLKMLDLSYNNLTSAGIQNFENEIPCTLEELNISGNNLISFPLFPKNLTLKGLNVSNNQISRAPSIAIYSVESLDITDNKFKERSLIDDLNKTFPSLKNIHLSGNEFNYNGNYINVEEQATFYEVLARFDRVMVLNGSICDVKTRREAEMFFVSKVMNNELSYDTNLPRWSSLIKSYEIDMSKLSFNNERETRQSLVLKIKIRAGKKPSSDLDYWVLPSFTVRYVKSVICRKLNFDILNVKLFHENSEGMINEIKYNFRPISDFNVVNGDIIHVSSPVNNKSIQKVNSPS
In test [4], B3 yielded a stoichiometry N of 1.
